Data reported in patent US7265202 (University of California, dated 2007).
Numbering of substitutions follows the chain as printed.

Tests used:
[1] = target: T1, STAT1 in IL6-treated murine M1 cells (murine, UniProt P42225 2-749, the filing says IL6 stimulation can induce tyrosine phosphorylation of STAT1); test: co-immunoprecipitation with anti-PIAS3c from M1 cells, blot reprobed with antibody to STAT1
T1 sequence (looked up): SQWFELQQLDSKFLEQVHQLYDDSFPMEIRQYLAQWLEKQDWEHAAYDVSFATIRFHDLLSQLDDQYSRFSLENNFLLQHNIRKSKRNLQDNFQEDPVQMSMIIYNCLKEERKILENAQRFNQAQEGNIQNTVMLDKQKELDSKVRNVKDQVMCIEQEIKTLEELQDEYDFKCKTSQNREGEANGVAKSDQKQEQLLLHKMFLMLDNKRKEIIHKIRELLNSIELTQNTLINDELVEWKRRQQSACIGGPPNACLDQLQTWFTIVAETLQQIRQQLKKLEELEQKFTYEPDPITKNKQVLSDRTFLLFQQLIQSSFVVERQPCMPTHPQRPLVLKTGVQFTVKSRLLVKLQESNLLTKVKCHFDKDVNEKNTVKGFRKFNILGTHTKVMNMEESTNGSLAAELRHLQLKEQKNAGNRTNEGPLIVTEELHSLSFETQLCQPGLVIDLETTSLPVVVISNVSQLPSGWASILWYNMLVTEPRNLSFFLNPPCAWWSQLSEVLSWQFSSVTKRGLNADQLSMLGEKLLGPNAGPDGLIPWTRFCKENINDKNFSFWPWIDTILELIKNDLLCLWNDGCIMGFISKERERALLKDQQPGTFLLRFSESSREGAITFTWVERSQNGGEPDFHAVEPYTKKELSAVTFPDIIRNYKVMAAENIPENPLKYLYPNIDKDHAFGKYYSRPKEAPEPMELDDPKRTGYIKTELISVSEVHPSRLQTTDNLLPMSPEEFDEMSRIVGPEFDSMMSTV
Protocol: To identify which STAT protein interacts with PIAS3, protein extracts were prepared from murine myeloblast M1 cells, which were untreated or treated with IL6. Proteins immunoprecipitated with anti-PIAS3c were analyzed by protein immunoblot with anti-STAT3. STAT3 was present in a PIAS3 immunoprecipitate from IL6 treated M1 cells but not in an immunoprecipitate from untreated M1 cells (FIG. 2A). […] IL6 stimulation can induce tyrosine phosphorylation of STAT1 as well as STAT3 (Sadowski et al. (1993)). The protein blot was therefore washed and reprobed with antibody to STAT1. STAT1 was not present in PIAS3 immunoprecipitates (FIG. 2A). Furthermore, PIAS3 was not found to be associated with STAT1 in a number of cell lines treated with interferon-γ.
Protein extracts from M1 cells, untreated (−) or treated with IL6 for 10 min (+), were subjected to immunoprecipitation (IP) with anti-PIAS3c. The blot was probed with anti-STAT. The same blot was then reprobed with anti-PIAS3c. The filter was washed and reprobed with anti-STAT1.

[2] = target: STAT3 in cytokine-treated human cells (CNTF, OM or IL6) (human, UniProt P40763 2-770, limits assumed, tyrosine phosphorylated after cytokine treatment (site not given)); test: co-immunoprecipitation with anti-PIAS1n from HepG2 cells untreated or treated with IL6 or IFN-γ, anti-STAT3 blot
Chain of STAT3 in cytokine-treated human cells (CNTF, OM or IL6) (P40763 2-770 limits assumed): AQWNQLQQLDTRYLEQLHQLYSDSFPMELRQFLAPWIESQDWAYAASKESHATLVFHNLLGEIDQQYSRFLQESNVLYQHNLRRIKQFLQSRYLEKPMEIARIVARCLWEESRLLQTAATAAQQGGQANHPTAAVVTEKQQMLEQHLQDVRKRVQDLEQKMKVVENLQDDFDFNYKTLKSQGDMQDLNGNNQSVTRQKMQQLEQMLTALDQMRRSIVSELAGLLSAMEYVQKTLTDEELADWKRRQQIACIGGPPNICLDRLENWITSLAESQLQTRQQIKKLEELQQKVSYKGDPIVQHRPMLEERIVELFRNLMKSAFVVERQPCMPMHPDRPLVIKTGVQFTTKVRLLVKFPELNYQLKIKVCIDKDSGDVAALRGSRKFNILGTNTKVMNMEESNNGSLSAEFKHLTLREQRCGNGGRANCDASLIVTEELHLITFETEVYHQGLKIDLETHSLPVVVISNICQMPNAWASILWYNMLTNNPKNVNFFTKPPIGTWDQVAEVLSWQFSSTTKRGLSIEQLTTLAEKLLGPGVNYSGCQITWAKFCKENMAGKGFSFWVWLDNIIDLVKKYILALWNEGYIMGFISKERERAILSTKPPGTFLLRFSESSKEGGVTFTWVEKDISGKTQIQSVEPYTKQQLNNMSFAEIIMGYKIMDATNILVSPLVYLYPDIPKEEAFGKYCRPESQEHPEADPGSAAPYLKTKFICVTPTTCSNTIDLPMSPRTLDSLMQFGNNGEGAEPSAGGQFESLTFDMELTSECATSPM

[3] = target: STAT2 in IFN-treated human Daudi B cells (human, UniProt P52630 1-851); test: co-immunoprecipitation with anti-PIAS1n from IFN-treated Daudi B cells, immunoblot with anti-STAT1 and anti-STAT2
Chain of STAT2 in IFN-treated human Daudi B cells (P52630 whole entry): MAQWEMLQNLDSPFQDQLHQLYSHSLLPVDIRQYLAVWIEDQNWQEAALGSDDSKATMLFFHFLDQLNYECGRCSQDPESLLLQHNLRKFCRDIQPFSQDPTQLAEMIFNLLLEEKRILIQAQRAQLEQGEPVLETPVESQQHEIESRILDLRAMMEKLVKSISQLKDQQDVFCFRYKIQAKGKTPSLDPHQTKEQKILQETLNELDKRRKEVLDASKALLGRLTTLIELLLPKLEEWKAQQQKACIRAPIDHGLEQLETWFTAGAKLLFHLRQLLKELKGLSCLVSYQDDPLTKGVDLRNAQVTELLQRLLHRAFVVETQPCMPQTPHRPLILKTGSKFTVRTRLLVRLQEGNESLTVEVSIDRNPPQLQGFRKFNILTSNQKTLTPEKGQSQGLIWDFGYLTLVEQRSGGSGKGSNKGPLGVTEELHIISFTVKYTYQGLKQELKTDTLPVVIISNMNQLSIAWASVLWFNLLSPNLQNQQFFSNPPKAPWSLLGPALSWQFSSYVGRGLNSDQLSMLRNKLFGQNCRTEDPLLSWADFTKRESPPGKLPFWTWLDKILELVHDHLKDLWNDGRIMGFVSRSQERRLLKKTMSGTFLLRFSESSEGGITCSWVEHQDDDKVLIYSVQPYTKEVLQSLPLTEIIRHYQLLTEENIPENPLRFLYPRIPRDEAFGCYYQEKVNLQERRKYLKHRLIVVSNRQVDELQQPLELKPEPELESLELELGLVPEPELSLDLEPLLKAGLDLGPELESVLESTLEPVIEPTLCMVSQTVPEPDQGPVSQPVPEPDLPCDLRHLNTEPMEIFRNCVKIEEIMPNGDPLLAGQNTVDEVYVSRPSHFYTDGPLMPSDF
Protocol: Daudi cells were treated with […] for the times indicated. Whole cell extracts were prepared and one half of these extracts were used for immunoprecipitation with anti-PIAS1n (left panel). Immunoprecipitation was carried out as described in (A) and the filter was probed with anti-STAT1 and anti-STAT2. The same filter was washed and reprobed with anti-PIAS1n (lower panel). The other half of protein extracts were subjected to immunoprecipitation with anti-STAT1 (right panel). The filter was probed with a mixture of anti-STAT1 and anti-STAT2 antibodies. p-STAT1: phosphorylated STAT1.
Human Daudi B cells were untreated or treated with IFN-α for various time periods. Protein extracts were prepared and subjected to immunoprecipitation with anti-PIAS1n followed by immunoblot with both anti-STAT1 and STAT2 antibodies. While STAT1 was associated with PIAS1 in IFN-treated cells, STAT2 was absent in PIAS1 immunoprecipitates (FIG. 8B).

[4] = target: T2, STAT1 in interferon-treated human cells (human, UniProt P42224 2-750, limits assumed, phosphotyrosine at Tyr-701 (IFN-induced)); test: co-immunoprecipitation with anti-PIAS3c from HepG2 cells untreated or treated with IL6 or IFN-γ, anti-STAT1 blot
T2 construct: also called p-STAT1; wild type STAT1
T2 sequence (looked up): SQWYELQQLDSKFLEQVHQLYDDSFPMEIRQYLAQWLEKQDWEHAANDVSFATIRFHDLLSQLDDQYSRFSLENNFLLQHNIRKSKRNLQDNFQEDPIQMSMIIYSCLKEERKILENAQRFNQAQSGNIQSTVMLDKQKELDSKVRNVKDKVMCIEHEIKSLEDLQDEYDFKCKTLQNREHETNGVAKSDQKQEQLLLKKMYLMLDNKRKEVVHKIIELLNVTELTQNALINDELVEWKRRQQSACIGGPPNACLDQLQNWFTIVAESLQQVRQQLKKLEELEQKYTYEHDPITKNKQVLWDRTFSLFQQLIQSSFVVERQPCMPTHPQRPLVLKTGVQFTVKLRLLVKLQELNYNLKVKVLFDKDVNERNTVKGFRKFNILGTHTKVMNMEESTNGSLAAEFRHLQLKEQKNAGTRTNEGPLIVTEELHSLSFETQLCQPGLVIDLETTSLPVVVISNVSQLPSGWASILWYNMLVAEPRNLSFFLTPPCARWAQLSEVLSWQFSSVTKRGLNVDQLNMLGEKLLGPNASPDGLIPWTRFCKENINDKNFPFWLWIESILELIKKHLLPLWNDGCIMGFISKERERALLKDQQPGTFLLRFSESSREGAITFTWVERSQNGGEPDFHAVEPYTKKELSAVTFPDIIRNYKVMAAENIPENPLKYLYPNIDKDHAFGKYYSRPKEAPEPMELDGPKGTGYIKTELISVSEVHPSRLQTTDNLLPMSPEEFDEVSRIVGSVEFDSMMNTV

B1: murine PIAS3 (other)
chain: MVMSFRVSELQVLLGFAGRNKSGRKHELLAKALHLLKSSCAPSVQMKIKELYRRRFPRKTLGPSDLSLLSLPPGTSPPVHPDVTMKPLPFYEVYGELIRPTTLASTSSQRFEEAHFTFALTPQQLQQILTSREVLPGAKCDYTIQVQLRFCLCETSCPQEDYFPPNLFVKVNGKLCPLPGYLPPTKNGAEPRGPAVRSTSHPWLDSQPLSPTPSLLIGHLSLDGITPCPCLVRQLTAGTLLQKLRAKGIRNPDHSRALIKEKLTADPDSEVATTSLPGVTHVPARKMRLTVPCRALTCAHLQSFDAALYLQMNEKKPTWTCPVCDKKAPYESLIIDGLFMEILNSCSDDDEIQFMEDGSWCPMKPKKEASEVCPPPGYGLDGLQYSAVQEGIQPESKKRVEVIDLTIESSSDEEDLPPTKKHCSPTSAAIPALPGSKGALTSGHQPSSVLRSPAMGTLGSDFLSSLPVHEYPPAFPLGADIQGLDLFSFLQTESQQYGPSVIISLDEQDTLGHFFQYRGTPSHFLGPLAPTLGSCHGSSTPAPPPGRVSSIVAPGSSLREGHGGPLPSGPSLTGCRSDVISLD
notes: Endogenous protein immunoprecipitated with anti-PIAS3c from M1 cell extracts; also called mPIAS3; mouse PIAS3
- binding result [1]: no binding

B2: human PIAS1 (other)
chain: ADSAELKQMVMSLRVSELQVLLGYAGRNKHGRKHELLTKALHLLKAGCSPAVQMKIKELYRRRFPQKIMTPADLSIPNVHSSPMPATLSPSTIPQLTYDGHPASSPLLPVSLLGPKHKLELPHLTSALHPVHPDIKLQKLPFYDLLDELIKPTSLASDNSQRFRETCFAFALTPQQVQQISSSMDISGTKCDFTVQVQLRFCLSETSCPQEDHFPPNLCVKVNTKPCSLPGYLPPTKNGVEPKRPSRPINITSLVRLSTTVPNTMCSWTAEIGRNYSMAVYLVKQLSSTVLLQRLRAKGIRNPDHSRALIKEKLTADPDSEIATTSLRVSLLCPLGKMRLTIPCRALTCSHLQCFDATLYIQMNEKKPTWVCPVCDKKAPYEHLIIDGLFMEILKYCTDCDEIQFKEDGTWAPMRSKKEVQEVSASYNGVDGCLSSTLEHQVASHHQSSNKNKKVEVIDLTIDSSSDEEEEEPSAKRTCPSLSPTSPLNNKGILSLPHQASPVSRTPSLPAVDTSYINTSLIQDYRHPFHMTPMPYDLQGLDFFPFLSGDNQHYNTSLLAAAAAAVSDDQDLLHSSRFFPYTSSQMFLDQLSAGGSTSLPTTNGSSSGSNSSLVSSNSLRESHSHTVTNRSSTDTASIFGIIPDIISLD
notes: also called hPIAS1
- binding result [2]: no binding
- binding result [3]: no binding

B3: human PIAS3 (other)
chain: B1 chain with H219M, D349C, H422Q, P425V, P434L, A439V
notes: Endogenous protein immunoprecipitated with anti-PIAS3c from human HepG2 cells; also called hPIAS3
- binding result [4]: no binding
